This note sets out measurements from patent US20040001822A1, “Y1-isolated molecules comprising epitopes containing sulfated moieties, antibodies to such epitopes, and uses thereof” (priority 2000, published 2004).

Assay [1] has as its system platelet-rich-plasma (PRP). The experiment in a line: Ristocetin-induced aggregation of platelet-rich plasma after preincubation with scFv. The format is cell-based, human. Particulars: scFv 25 μg/ml. As to the method: The effect of Y1 (scfv) on aggregation of platelet-rich-plasma (PRP) was tested at various concentrations of Y1. PRP was pre-incubated with Y1 scfv, Y17 scfv, or a control sTM-1cFv for 4 min at 37° C. before being exposed to ristocetin, an inducer of platelet agglutination and aggregation. A reversible inhibitory effect was observed when scFv was added to PRP prior to the addition of ristocetin, and it was dose dependent.
Blood was collected into a tube containing 3.8% sodium citrate. Platelet-rich plasma was prepared by centrifugation at 250×g for 10 minutes.
For platelet aggregation studies, platelet rich plasma (PRP) and washed platelets were stirred at 500 rpm at 37° C. in whole blood Lumiaggregometer (Chronolog, Havertown,Pa.). The difference in light transmission through the platelet suspension and suspending medium was taken as 100% aggregation. The effect of Y1 on platelet aggregation was evaluated by addition of different concentration of Y1 before the addition of agonist, and the effect was recorded for four minutes.

The next assay concerns primary leukemia cells. The experiment in a line: FACS binding of Y1 to primary leukemia cells of patients. Further details: species or system human. As to the method:
(§1) Samples provided from hospitals. Patients sample 30 μl/tube. Add 5 μl/tube of CD33-APC (for AML) or CD19-APC (for B-CLL) or CD38-APC (for Multiple Myeloma). Add 5 μl/tube of CD45-PerCp and 5 μl of scFv-Y1 or control scFv-N31 or CD162-PE (KPL1). Incubate tubes 30 minutes at 4° C. with low shaking. Wash by adding 2 ml PBS and spin 5 minutes at 1200 rpm. Discard supernatant.
(§2) For a one step assay continue with the lysis step:
(§3) Add 500 μl BD Lysine solution diluted 1:10 with ddH2O (300 μl to patient sample). Vortex at high speed and incubate 12 minutes at 4° C. Wash as above. Discard supernatant. And add 500 μl PBS. The samples are read in the FACS using blood sample acquisition setup according to international standards.
(§4) For two or more assays: working buffer is PBS+1% BSA+0.05% sodium azide. Incubations and wash as above.
(§5) Lysis of the red blood cells is the final step in the assay, followed by resuspension with 500 μl PBS.

Another assay has as its system Leukemia Cells. The experiment in a line: FACS of leukemia samples: anti-CD162 versus Y1. Format: binding, human. Conditions: 12 patient samples of Table 11. On the procedure: Analysis of binding of scFv Y1 antibodies and anti-CD162 antibodies to diseased cells also illustrates that scFv Y1 has binding characteristics different from those of anti-CD162 antibodies. […] (Table F). Y1 binds to the leukemic cells in 10 of 12 samples. In contrast, anti-CD162 bound only 5 out of 12 samples. […] Thus, it may be concluded that, in leukemic cells, scFv Y1 binds to a ligand other than that recognized by anti-CD162.
as §1, §2, §3, §4, §5

For a further assay, the system named is Glycocalicin (GC). In words: Western blot with Y1 on enzyme-treated glycocalicin. The format is binding, human. Particulars: O-Sialo glycoprotein endopeptidase, 30′ at 37° C. The text has this: Y1 ligand was further characterized using enzymatic treatments with proteases, glycanases, and […]; Western blotting with Y1, anti-CD42 antibodies, anti-CD162 antibodies and 181, immunoprecipitation using Y1 and anti-CD162 antibodies; FACS analysis using Y1 anti-CD162 antibodies; and sequencing.
The table below summarizes the biochemical experiments preformed to characterize and localize the Y1 binding site on KG-1 cells.
Western Blot Analysis with Y1 on SDS-PAGE Reducing Gels
The nitrocellulose membrane was blocked using 5% skim milk for one hour at room temperature. The membrane was then washed 3 times for 5 minutes each with 0.05% Tween 20 in PBS at room temperature. The membrane was incubated with 5 μg/ml Y1-biotin (or 181-biotin) in 2% skim milk in PBS for one hour at room temperature. The membrane was then washed 3 times for 5 minutes each with cold 0.05% Tween 20 in PBS in the cold room (about 4 to about 10° C.). The membrane was then incubated in the cold room with a 1:1000 dilution of SAV-HRP (streptavidin-HRP) (at a final concentration of […]) in 2% skim milk, 0.05% Tween. The dilution was carried out at room temperature (about 25° C.), then the diluted SAV-HRP was cooled on ice for 10-15 minutes before use. The incubation was carried out for 1 hour with gentle shaking. After the incubation with SAV-HRP, the membrane was washed, as above. […]

In assay [2] the target is T1, natural human platelet derived glycocalicin (Homo sapiens, UniProt P07359).
T1 construct: glycocalicin (soluble, extracellular fragment of GPIbα); from tissue; host or cells: human platelets
In words: Western blot on natural human platelet derived glycocalicin. Conditions: semi-purified human platelet derived glycocalicin. The format is binding. On the procedure:
(§6) The DNA fragment encoding for glycocalicin (GC, amino acid 1 to amino acid 493 of GPIbα ) was cloned into an IPTG inducible prokaryotic vector cassette. E. coli (BL21 DE3) cells harboring the newly constructed plasmid were grown at 37° C. to O.D. 0.7-0.8, than at 37° C. for 3 hours for in the presence of IPTG for induction.
(§7) SDS-polyacrylamide gel loaded either with semi-purified human platelet derived glycocalicin (“GC”) or with E. coli cell lysates (“total”) derived from induced and non-induced cells were analyzed. Western blot analysis was performed with biotinylated Y1-scfv, polyclonal rabbit anti-human glycocalicin antibody, commercially available mouse anti-human CD42 monoclonal antibody (SZ2 Immunotech, PM640 Serotec, HIP1 Pharmigen, AN51 DAKO), and polyclonal antibody against the N-terminus of GPIbα (Sc-7071, Santa Cruz).
(§8) The DNA fragment encoding the N-terminal soluble part of human platelet GP1b-glycocalicin (GC, amino acid 1 to amino acid 493) was cloned into an IPTG inducible prokaryotic vector cassette. E. coli (BL21 DE3) cells harboring the newly constructed plasmid were grown at 37° C. to O.D. 0.7-0.8, than at 37° C. for 3 hours for in the presence of IPTG for induction. SDS-polyacrylamide gel loaded either with semi-purified human platelet derived GC or with E. coli cell lysates (total protein content) derived from induced and non-induced cells were analyzed. […]
On the technique in general: Immunoblotting shows a protein as a band on a membrane.

In assay [3] the target is T2, recombinant bacterial derived glycocalicin (Homo sapiens, UniProt P07359).
T2 construct: GC, amino acid 1 to amino acid 493 of GPIbα; made in house; host or cells: E. coli BL21 DE3 (total cell lysate loaded on the gel)
The experiment in a line: Western blot on recombinant glycocalicin expressed in E. coli. The format is binding. Conditions: E. coli cell lysates. On the procedure: as §6, §7, §8

B1: Y1 scFv: fully human scFv clone binding platelets and myelogenous leukemia cells, SEQ ID NO: 25 (protein, listed as Homo sapiens)
scFv: MKYLLPTAAAGLLLLAAQPAMAEVQLVESGGGVVRPGGSLRLSCAASGFTFDDYGMSWVRQAPGKGLEWVSGINWNGGSTGYADSVKGRFTISRDNAKNSLYLQMNSLRAEDTAVYYCARMRAPVIWGQGTLVTVSRGGGGSGGGGSGGGGSSELTQDPAVSVALGQTVRITCQGDSLRSYYASWYQQKPGQAPVLVIYGKNNRPSGIPDRFSGSSSGNTASLTITGAQAEDEADYYCNSRDSSGNHVVFGGGTKLTVLGAAAEQKLISEEDLNGAA
As for B1, the “% aggregation” value in assay [1] was determined as 87%. In addition, in assay [1] (listed as Y1), the “% inhibition” value is “no significant inhibition”. The “% Positive” value in the assay with primary leukemia cells (patients with AML) is recorded as 80%; in the assay on primary leukemia cells (patients with B-Leukemia), 67%; with primary leukemia cells (patients with Multiple Myeloma) it was 100%. Moreover, the “Number Positive” value in the assay on primary leukemia cells (patients with AML) was 60/75; in the assay with primary leukemia cells (patients with B-Leukemia), 29/43; with primary leukemia cells (patients with Multiple Myeloma), 16/16. In the assay on Leukemia Cells, the “leukemia samples whose leukemic cells are bound” value was 10 of 12. In addition, the “Reactivity with Y1” value in the assay on Glycocalicin (GC) is “Enhanced”. Further, the “recognition in Western blot” value in assay [2] is given as “recognized”; in assay [2] (listed as scFv Y1), “recognized only the natural human derived GC”; in assay [3] it was “did not recognize”.
